Reference: paper doi:10.1101/2020.09.08.280818

What was measured:
[1] = target: SARS-CoV-2 spike glycoprotein stabilised in the prefusion conformation (P2 S), TwinStrep-tagged (SARS-CoV-2) (UniProt P0DTC2); assay: cryo-EM structure
[2] = target: human ACE2 peptidase domain (PD), Avi-tagged (human); assay: BLI

## SARS-CoV-2 spike glycoprotein stabilised in the prefusion conformation (P2 S), TwinStrep-tagged (from UniProt P0DTC2 14-1273) (natural protein)
[1]
  stoichiometry N: 3
[2]
  Kd: 1 nM
